Biological target: ATP synthase (endogenous, mouse cardiomyocytes) (mouse (endogenous in mouse neonatal cardiomyocytes)) (UniProt P56480)
Test: native gel or EMSA

Substance: ATP synthase (endogenous, mouse cardiomyocytes) (from UniProt P56480 47-529; Q9DCX2 1-161; Q9DB20 24-213; Q9CQQ7 43-256) (complex)
- stoichiometry N: 2

From publication PMC9639781
